Experimental data from article PMC3854711, “Handling Uncertainty in Dynamic Models: The Pentose Phosphate Pathway in Trypanosoma brucei” (PLoS Computational Biology, 2013).

Assays:
[1] = substrate: Nc1ncnc2c1ncn2[C@@H]1O[C@H](COP(=O)(O)OP(=O)(O)OP(=O)(O)O)[C@@H](O)[C@H]1O; experiment: coupled spectrophotometric assay (PK/LDH, NADH); assay type: biochemical, Trypanosoma brucei; conditions: ribose co-substrate (5 mM), 10 mM MgCl2, pH 7, 25°C, ribose 5-phosphate production direction
Excerpt: coupled spectrophotometric assay (PK/LDH, NADH) on T. brucei ribokinase | enzyme kinetics of heterologously expressed T. brucei ribokinase were characterized

[2] = substrate: Nc1ncnc2c1ncn2[C@@H]1O[C@H](COP(=O)(O)OP(=O)(O)O)[C@@H](O)[C@H]1O; experiment: coupled spectrophotometric assay (HXK/G6PDH, NADP); assay type: biochemical, Trypanosoma brucei; conditions: ribose 5-phosphate co-substrate (5 mM), 10 mM MgCl2, pH 7, 25°C, reverse direction, ribose production
Excerpt: coupled spectrophotometric assay (HXK/G6PDH, NADP) on T. brucei ribokinase | the enzyme could indeed work in the ribose production direction

B1: T. brucei ribokinase (Trypanosoma brucei brucei TREU927) (protein)
chain: MSAAGVKSGNGCIADTPIVVVGACFVDYVAYVDHLPQVGESLRCRSFSKGFGGKGSNQAVCAGRLGASVSMVGAVGTDGDGADYIANFQRNGVQVSNVYRMENTSTGLAMIFVDSTTSHNEIVFSPNATGALTVDYLRKQSDNYNNFFGPKCRYIILQNEIPVETTLDVLKEAHTRGIYTVFNAAPAPSADEVAVVKPFLSYVSLFCVNEVEASMITGIDVKDTQSAILATEEMQKLGAHSVVTTLGGNGYVIGEKGKPPRHLPSITVKAVDSTGAGDCFVGAMVFYLSMGKSLEESCKRANMIAAISVQRPGTQSSYPTLDELPAEVKECKI
notes: N-terminal His-tag from pET28a(+), expressed in E. coli BL21(DE3), Ni chelate purified
Protein B1 has a Km [1] of 0.24 mM and a Km [2] of 0.25 mM.
